From the supplement of paper PMC10065799, “High-throughput profiling of sequence recognition by tyrosine kinases and SH2 domains using bacterial peptide display” (eLife, 2023)
Blank lines part the entries; values can stand above or below the sequence they belong to.

Assays:
c-Abl (mouse) = test: phosphorylation enrichment, bacterial display (enrichment ratio); higher = better substrate or ligand; peptides without Tyr show the background
EPHB2 = EPHB2 (UniProt P29323); test: as above
Hck = Hck (UniProt P08631); test: as above
MERTK = MERTK (UniProt Q12866); test: as above
Fyn = Fyn (UniProt P06241); test: as above
AncSZ = test: as above
Fer (mouse) = test: as above
c-Src = test: as above
Jak2 = Jak2 (UniProt O60674); test: as above
Fes = Fes (UniProt P07332); test: as above
FGFR3 = FGFR3 (UniProt P22607); test: as above
FGFR1 = FGFR1 (UniProt P11362); test: as above
EPHB1 = EPHB1 (UniProt P54762); test: as above
c-Src SH2 = test: SH2 binding enrichment of the phosphorylated peptide, bacterial display (enrichment ratio); higher = better substrate or ligand; peptides without Tyr show the background
SHP2-C SH2 = test: as above
Grb2 SH2 = Grb2 SH2 (UniProt P62993); test: as above
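For SH2 binding enrichment of the phosphorylated peptide, bacterial display in this document: peptide library displayed on the E. coli surface as eCPX fusions, selected cells deep-sequenced, score is each peptide's frequency after selection divided by its frequency in the input.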
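For phosphorylation enrichment, bacterial display in this document: 11-residue human phosphosite peptides and single-mutation variants displayed on the E. coli surface, counted by deep sequencing, each peptide's frequency after selection divided by its frequency in the unselected input library; frequency after pTyr selection over input frequency; kinase dosed for 20-30% of maximal phosphorylation in three min.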

Chain of Fes (P07332 whole entry, looked up): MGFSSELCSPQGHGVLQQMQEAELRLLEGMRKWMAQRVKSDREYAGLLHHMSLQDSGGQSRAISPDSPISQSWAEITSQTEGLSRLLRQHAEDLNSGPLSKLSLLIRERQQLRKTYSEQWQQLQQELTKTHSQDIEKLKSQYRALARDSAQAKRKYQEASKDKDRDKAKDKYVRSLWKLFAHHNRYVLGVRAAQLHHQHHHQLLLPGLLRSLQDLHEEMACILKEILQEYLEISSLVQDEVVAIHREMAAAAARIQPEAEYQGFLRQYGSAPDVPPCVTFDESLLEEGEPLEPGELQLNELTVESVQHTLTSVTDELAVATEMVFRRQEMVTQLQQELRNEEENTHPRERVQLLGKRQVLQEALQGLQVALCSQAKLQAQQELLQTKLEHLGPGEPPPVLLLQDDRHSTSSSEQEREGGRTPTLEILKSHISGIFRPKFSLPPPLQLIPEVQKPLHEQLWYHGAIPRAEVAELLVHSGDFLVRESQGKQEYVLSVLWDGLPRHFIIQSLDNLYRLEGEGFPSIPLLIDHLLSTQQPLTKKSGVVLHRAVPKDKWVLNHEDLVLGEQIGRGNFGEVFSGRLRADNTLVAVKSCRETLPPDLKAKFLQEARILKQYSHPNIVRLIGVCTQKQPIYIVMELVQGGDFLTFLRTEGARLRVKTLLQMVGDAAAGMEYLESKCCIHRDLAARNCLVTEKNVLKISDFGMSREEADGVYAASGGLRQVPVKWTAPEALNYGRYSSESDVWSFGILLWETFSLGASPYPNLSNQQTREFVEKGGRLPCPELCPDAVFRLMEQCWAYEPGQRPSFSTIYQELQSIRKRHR
Chain of Jak2 (O60674 whole entry, looked up): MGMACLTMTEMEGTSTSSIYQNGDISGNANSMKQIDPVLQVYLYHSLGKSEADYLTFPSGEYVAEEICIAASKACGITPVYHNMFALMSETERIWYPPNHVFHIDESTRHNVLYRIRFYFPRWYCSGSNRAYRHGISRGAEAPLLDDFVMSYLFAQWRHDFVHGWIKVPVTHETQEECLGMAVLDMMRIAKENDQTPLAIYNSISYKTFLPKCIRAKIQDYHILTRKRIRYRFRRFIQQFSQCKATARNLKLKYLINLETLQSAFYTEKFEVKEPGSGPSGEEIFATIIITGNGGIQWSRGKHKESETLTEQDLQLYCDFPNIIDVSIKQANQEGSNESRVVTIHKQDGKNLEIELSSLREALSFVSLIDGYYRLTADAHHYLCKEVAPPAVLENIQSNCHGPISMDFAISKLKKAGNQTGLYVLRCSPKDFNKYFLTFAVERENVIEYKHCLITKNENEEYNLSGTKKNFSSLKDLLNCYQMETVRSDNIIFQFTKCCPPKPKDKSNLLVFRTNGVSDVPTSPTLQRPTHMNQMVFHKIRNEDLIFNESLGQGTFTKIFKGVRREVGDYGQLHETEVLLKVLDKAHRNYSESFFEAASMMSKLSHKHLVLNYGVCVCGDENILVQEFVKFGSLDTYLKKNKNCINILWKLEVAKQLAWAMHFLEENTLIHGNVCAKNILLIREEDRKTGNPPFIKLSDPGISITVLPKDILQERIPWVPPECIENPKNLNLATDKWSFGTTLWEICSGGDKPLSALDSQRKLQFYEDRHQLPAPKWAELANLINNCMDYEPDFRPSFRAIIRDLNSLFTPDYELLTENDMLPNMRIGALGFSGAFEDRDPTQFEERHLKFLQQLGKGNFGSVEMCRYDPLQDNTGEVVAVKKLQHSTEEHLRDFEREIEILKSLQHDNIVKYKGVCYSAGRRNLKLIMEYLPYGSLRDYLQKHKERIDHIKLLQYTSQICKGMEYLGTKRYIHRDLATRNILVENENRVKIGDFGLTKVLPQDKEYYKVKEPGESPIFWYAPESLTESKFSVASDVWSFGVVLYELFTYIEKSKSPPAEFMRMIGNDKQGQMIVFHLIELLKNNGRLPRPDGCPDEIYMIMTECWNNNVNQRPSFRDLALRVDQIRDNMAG
Chain of Fyn (P06241 whole entry, looked up): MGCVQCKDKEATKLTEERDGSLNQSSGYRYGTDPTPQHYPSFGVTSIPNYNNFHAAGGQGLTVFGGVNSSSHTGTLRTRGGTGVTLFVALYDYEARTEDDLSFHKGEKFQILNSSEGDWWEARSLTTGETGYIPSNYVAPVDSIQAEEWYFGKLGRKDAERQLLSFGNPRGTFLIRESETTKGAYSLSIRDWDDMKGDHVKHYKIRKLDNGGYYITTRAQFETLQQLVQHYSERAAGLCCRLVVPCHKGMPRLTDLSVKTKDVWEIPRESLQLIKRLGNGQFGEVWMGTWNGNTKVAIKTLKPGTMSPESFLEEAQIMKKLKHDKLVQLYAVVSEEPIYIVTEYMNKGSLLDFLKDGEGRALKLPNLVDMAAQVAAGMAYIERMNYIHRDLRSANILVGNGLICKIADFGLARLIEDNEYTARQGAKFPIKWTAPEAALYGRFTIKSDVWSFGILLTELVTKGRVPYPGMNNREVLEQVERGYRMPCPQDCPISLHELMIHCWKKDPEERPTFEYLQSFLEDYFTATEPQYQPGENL
Chain of EPHB1 (P54762 whole entry, looked up): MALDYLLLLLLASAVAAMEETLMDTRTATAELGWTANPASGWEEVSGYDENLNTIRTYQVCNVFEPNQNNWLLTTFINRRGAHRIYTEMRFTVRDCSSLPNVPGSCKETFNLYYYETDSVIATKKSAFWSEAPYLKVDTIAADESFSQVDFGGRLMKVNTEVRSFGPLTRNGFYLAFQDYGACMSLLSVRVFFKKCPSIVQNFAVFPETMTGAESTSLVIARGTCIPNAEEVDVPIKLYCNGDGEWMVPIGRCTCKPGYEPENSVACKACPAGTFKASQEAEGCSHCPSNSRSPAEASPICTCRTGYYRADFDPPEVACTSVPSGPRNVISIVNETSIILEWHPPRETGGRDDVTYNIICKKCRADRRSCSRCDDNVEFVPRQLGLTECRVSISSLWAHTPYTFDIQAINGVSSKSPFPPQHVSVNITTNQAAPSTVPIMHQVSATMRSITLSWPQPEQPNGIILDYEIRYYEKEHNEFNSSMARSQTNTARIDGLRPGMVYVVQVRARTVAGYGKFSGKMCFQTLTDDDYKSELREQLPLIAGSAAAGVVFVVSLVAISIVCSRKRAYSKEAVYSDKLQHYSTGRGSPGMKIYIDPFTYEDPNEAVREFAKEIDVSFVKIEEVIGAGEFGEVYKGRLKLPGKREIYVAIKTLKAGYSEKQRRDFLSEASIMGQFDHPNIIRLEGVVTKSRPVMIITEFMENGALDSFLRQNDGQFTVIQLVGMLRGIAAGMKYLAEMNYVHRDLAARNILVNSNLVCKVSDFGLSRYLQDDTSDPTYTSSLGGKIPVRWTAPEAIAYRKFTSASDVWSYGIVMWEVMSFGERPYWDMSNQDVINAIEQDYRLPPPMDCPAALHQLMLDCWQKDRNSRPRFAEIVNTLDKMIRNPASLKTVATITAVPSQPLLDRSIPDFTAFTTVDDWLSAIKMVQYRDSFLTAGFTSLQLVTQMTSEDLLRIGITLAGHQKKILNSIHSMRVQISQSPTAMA
Chain of Hck (P08631 whole entry, looked up): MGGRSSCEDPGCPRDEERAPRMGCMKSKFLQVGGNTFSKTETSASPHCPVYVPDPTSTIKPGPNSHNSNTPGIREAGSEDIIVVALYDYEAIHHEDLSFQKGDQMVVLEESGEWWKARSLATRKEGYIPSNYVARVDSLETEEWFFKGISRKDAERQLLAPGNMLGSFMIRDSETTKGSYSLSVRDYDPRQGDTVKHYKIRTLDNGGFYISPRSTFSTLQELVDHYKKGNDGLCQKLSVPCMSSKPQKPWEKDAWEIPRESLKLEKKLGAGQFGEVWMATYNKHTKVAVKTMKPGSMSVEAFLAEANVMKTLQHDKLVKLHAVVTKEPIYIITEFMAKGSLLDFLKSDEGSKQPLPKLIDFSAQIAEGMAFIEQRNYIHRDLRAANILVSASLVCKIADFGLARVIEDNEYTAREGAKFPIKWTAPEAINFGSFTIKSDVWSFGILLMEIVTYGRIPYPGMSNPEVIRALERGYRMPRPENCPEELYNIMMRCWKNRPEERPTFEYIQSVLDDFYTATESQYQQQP
Chain of FGFR3 (P22607 whole entry, looked up): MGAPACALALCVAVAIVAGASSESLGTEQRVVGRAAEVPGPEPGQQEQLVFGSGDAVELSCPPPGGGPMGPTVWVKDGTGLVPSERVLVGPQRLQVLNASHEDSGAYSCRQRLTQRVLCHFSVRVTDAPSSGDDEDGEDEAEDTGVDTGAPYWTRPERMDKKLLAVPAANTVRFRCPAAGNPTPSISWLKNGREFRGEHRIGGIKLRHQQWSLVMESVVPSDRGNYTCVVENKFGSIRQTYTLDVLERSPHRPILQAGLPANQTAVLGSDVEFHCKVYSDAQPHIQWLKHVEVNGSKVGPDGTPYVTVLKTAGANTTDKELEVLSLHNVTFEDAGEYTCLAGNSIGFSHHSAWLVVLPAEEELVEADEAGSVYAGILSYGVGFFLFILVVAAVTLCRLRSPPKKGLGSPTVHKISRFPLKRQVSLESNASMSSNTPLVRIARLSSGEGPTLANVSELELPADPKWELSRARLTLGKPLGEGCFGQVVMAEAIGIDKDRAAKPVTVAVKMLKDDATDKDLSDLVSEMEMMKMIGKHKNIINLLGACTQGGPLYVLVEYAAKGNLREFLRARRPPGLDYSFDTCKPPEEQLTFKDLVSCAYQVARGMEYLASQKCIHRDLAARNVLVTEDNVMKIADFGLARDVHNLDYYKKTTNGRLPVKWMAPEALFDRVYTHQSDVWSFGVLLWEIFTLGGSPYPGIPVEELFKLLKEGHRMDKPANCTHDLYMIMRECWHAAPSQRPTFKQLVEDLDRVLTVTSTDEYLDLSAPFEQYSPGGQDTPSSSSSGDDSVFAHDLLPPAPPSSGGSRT

Sequence: RKRQFYLYKGK [RSPO4_Y112_C107R]
phosphorylation enrichment (c-Abl (mouse)): 0.296
phosphorylation enrichment (EPHB2): 0.615
phosphorylation enrichment (Hck): 0.358
phosphorylation enrichment (MERTK): 0.602
phosphorylation enrichment (Fyn): 0.503
phosphorylation enrichment (AncSZ): 0.613
phosphorylation enrichment (Fer (mouse)): 0.494
phosphorylation enrichment (c-Src): 0.44
phosphorylation enrichment (Jak2): 0.228
phosphorylation enrichment (Fes): 0.432
phosphorylation enrichment (FGFR3): 0.4
phosphorylation enrichment (FGFR1): 0.437
phosphorylation enrichment (EPHB1): 0.343
SH2 binding enrichment (c-Src SH2): 0.378
SH2 binding enrichment (SHP2-C SH2): 0.428
SH2 binding enrichment (Grb2 SH2): 0.965

Sequence: LGPSDYFGEIV [PRKAR1A_Y323_A328V]
phosphorylation enrichment (c-Abl (mouse)): 0.746
phosphorylation enrichment (EPHB2): 0.722
phosphorylation enrichment (Hck): 0.577
phosphorylation enrichment (MERTK): 0.529
phosphorylation enrichment (Fyn): 0.655
phosphorylation enrichment (AncSZ): 1.41
phosphorylation enrichment (Fer (mouse)): 0.586
phosphorylation enrichment (c-Src): 0.781
phosphorylation enrichment (Jak2): 1.06
phosphorylation enrichment (Fes): 0.913
phosphorylation enrichment (FGFR3): 1.42
phosphorylation enrichment (FGFR1): 1.49
phosphorylation enrichment (EPHB1): 0.717
SH2 binding enrichment (c-Src SH2): 0.654
SH2 binding enrichment (SHP2-C SH2): 0.738
SH2 binding enrichment (Grb2 SH2): 1.03

Sequence: MDNQEYKDAYT [BRDT_Y331_K336T]
phosphorylation enrichment (c-Abl (mouse)): 0.792
phosphorylation enrichment (EPHB2): 0.796
phosphorylation enrichment (Hck): 0.673
phosphorylation enrichment (MERTK): 0.586
phosphorylation enrichment (Fyn): 0.589
phosphorylation enrichment (AncSZ): 1.33
phosphorylation enrichment (Fer (mouse)): 0.638
phosphorylation enrichment (c-Src): 0.546
phosphorylation enrichment (Jak2): 1.11
phosphorylation enrichment (Fes): 1.33
phosphorylation enrichment (FGFR3): 0.783
phosphorylation enrichment (FGFR1): 0.667
phosphorylation enrichment (EPHB1): 0.598
SH2 binding enrichment (c-Src SH2): 0.574
SH2 binding enrichment (SHP2-C SH2): 0.655
SH2 binding enrichment (Grb2 SH2): 0.702

Sequence: GCRSKYVRLWG [KCNQ1_Y184_G186R]
phosphorylation enrichment (c-Abl (mouse)): 0.492
phosphorylation enrichment (EPHB2): 0.409
phosphorylation enrichment (Hck): 0.461
phosphorylation enrichment (MERTK): 0.444
phosphorylation enrichment (Fyn): 0.425
phosphorylation enrichment (AncSZ): 0.628
phosphorylation enrichment (Fer (mouse)): 0.472
phosphorylation enrichment (c-Src): 0.495
phosphorylation enrichment (Jak2): 0.636
phosphorylation enrichment (Fes): 0.696
phosphorylation enrichment (FGFR3): 0.486
phosphorylation enrichment (FGFR1): 0.462
phosphorylation enrichment (EPHB1): 0.383
SH2 binding enrichment (c-Src SH2): 1.54
SH2 binding enrichment (SHP2-C SH2): 1.6
SH2 binding enrichment (Grb2 SH2): 1.38

Sequence: VDDEIYFFRKP [PBRM1_Y1289_YF]
phosphorylation enrichment (c-Abl (mouse)): 1.35
phosphorylation enrichment (EPHB2): 0.635
phosphorylation enrichment (Hck): 5.24
phosphorylation enrichment (MERTK): 0.796
phosphorylation enrichment (Fyn): 6.18
phosphorylation enrichment (AncSZ): 2.12
phosphorylation enrichment (Fer (mouse)): 0.652
phosphorylation enrichment (c-Src): 5.57
phosphorylation enrichment (Jak2): 1.25
phosphorylation enrichment (Fes): 1.4
phosphorylation enrichment (FGFR3): 1.32
phosphorylation enrichment (FGFR1): 1.32
phosphorylation enrichment (EPHB1): 0.693
SH2 binding enrichment (c-Src SH2): 0.466
SH2 binding enrichment (SHP2-C SH2): 0.661
SH2 binding enrichment (Grb2 SH2): 0.75

Sequence: IKAGAYDFPSL [CAMK2A_Y230_P235L]
phosphorylation enrichment (c-Abl (mouse)): 0.541
phosphorylation enrichment (EPHB2): 0.493
phosphorylation enrichment (Hck): 0.382
phosphorylation enrichment (MERTK): 5.66
phosphorylation enrichment (Fyn): 0.877
phosphorylation enrichment (AncSZ): 0.761
phosphorylation enrichment (Fer (mouse)): 1.03
phosphorylation enrichment (c-Src): 0.388
phosphorylation enrichment (Jak2): 0.603
phosphorylation enrichment (Fes): 0.647
phosphorylation enrichment (FGFR3): 0.484
phosphorylation enrichment (FGFR1): 0.41
phosphorylation enrichment (EPHB1): 0.418
SH2 binding enrichment (c-Src SH2): 4.76
SH2 binding enrichment (SHP2-C SH2): 0.626
SH2 binding enrichment (Grb2 SH2): 0.774

Sequence: TFEFRYLEDRD [CNOT3_Y746_YF]
phosphorylation enrichment (c-Abl (mouse)): 0.762
phosphorylation enrichment (EPHB2): 0.756
phosphorylation enrichment (Hck): 0.67
phosphorylation enrichment (MERTK): 0.398
phosphorylation enrichment (Fyn): 0.686
phosphorylation enrichment (AncSZ): 1.35
phosphorylation enrichment (Fer (mouse)): 0.606
phosphorylation enrichment (c-Src): 0.591
phosphorylation enrichment (Jak2): 1.17
phosphorylation enrichment (Fes): 1.37
phosphorylation enrichment (FGFR3): 0.826
phosphorylation enrichment (FGFR1): 0.599
phosphorylation enrichment (EPHB1): 0.676
SH2 binding enrichment (c-Src SH2): 0.584
SH2 binding enrichment (SHP2-C SH2): 0.96
SH2 binding enrichment (Grb2 SH2): 1.08

Sequence: IVFVICDEVVK [SLC25A1_Y297_Y297C]
phosphorylation enrichment (c-Abl (mouse)): 0.55
phosphorylation enrichment (EPHB2): 0.555
phosphorylation enrichment (Hck): 0.501
phosphorylation enrichment (MERTK): 0.333
phosphorylation enrichment (Fyn): 0.442
phosphorylation enrichment (AncSZ): 1.15
phosphorylation enrichment (Fer (mouse)): 0.498
phosphorylation enrichment (c-Src): 0.393
phosphorylation enrichment (Jak2): 1.01
phosphorylation enrichment (Fes): 1.25
phosphorylation enrichment (FGFR3): 0.833
phosphorylation enrichment (FGFR1): 0.484
phosphorylation enrichment (EPHB1): 0.652
SH2 binding enrichment (c-Src SH2): 0.734
SH2 binding enrichment (SHP2-C SH2): 1.03
SH2 binding enrichment (Grb2 SH2): 1.12

Sequence: VDSNPYSHLMA [UBA5_Y53_R55H]
phosphorylation enrichment (c-Abl (mouse)): 0.504
phosphorylation enrichment (EPHB2): 0.481
phosphorylation enrichment (Hck): 0.891
phosphorylation enrichment (MERTK): 0.518
phosphorylation enrichment (Fyn): 0.639
phosphorylation enrichment (AncSZ): 0.669
phosphorylation enrichment (Fer (mouse)): 1.25
phosphorylation enrichment (c-Src): 0.862
phosphorylation enrichment (Jak2): 0.577
phosphorylation enrichment (Fes): 0.631
phosphorylation enrichment (FGFR3): 0.489
phosphorylation enrichment (FGFR1): 0.418
phosphorylation enrichment (EPHB1): 0.48
SH2 binding enrichment (c-Src SH2): 1.59
SH2 binding enrichment (SHP2-C SH2): 1.15
SH2 binding enrichment (Grb2 SH2): 0.813

Sequence: FDSPFYRDSLP [TSC1_Y508]
phosphorylation enrichment (c-Abl (mouse)): 0.47
phosphorylation enrichment (EPHB2): 0.479
phosphorylation enrichment (Hck): 0.47
phosphorylation enrichment (MERTK): 0.409
phosphorylation enrichment (Fyn): 0.454
phosphorylation enrichment (AncSZ): 0.703
phosphorylation enrichment (Fer (mouse)): 0.497
phosphorylation enrichment (c-Src): 0.451
phosphorylation enrichment (Jak2): 0.594
phosphorylation enrichment (Fes): 0.68
phosphorylation enrichment (FGFR3): 0.484
phosphorylation enrichment (FGFR1): 0.446
phosphorylation enrichment (EPHB1): 0.314
SH2 binding enrichment (c-Src SH2): 0.518
SH2 binding enrichment (SHP2-C SH2): 0.652
SH2 binding enrichment (Grb2 SH2): 0.796

Sequence: LEDEVCAQKMK [TPM2_Y261_Y261C]
phosphorylation enrichment (c-Abl (mouse)): 1.2
phosphorylation enrichment (EPHB2): 0.963
phosphorylation enrichment (Hck): 0.832
phosphorylation enrichment (MERTK): 0.848
phosphorylation enrichment (Fyn): 1.01
phosphorylation enrichment (AncSZ): 1.6
phosphorylation enrichment (Fer (mouse)): 1.01
phosphorylation enrichment (c-Src): 0.573
phosphorylation enrichment (Jak2): 1.44
phosphorylation enrichment (Fes): 2.03
phosphorylation enrichment (FGFR3): 1.16
phosphorylation enrichment (FGFR1): 0.79
phosphorylation enrichment (EPHB1): 1.07
SH2 binding enrichment (c-Src SH2): 0.967
SH2 binding enrichment (SHP2-C SH2): 1.38
SH2 binding enrichment (Grb2 SH2): 1.02

The next lines start with results.

SH2 binding enrichment (c-Src SH2): 0.859
SH2 binding enrichment (SHP2-C SH2): 1.09
SH2 binding enrichment (Grb2 SH2): 0.984
Sequence: VFGVSYDEFRF [CFTR_Y512_I507V_YF]
phosphorylation enrichment (c-Abl (mouse)): 0.823
phosphorylation enrichment (EPHB2): 0.577
phosphorylation enrichment (Hck): 1.25
phosphorylation enrichment (MERTK): 0.799
phosphorylation enrichment (Fyn): 1.13
phosphorylation enrichment (AncSZ): 1.09
phosphorylation enrichment (Fer (mouse)): 1.98
phosphorylation enrichment (c-Src): 2.83
phosphorylation enrichment (Jak2): 1.4
phosphorylation enrichment (Fes): 1.13
phosphorylation enrichment (FGFR3): 0.736
phosphorylation enrichment (FGFR1): 0.452
phosphorylation enrichment (EPHB1): 0.578

SH2 binding enrichment (c-Src SH2): 0.643
SH2 binding enrichment (SHP2-C SH2): 0.765
SH2 binding enrichment (Grb2 SH2): 1.01
Sequence: TLQNMYGCDVG [HLA-B_Y123_S121N]
phosphorylation enrichment (c-Abl (mouse)): 0.756
phosphorylation enrichment (EPHB2): 0.581
phosphorylation enrichment (Hck): 0.625
phosphorylation enrichment (MERTK): 0.446
phosphorylation enrichment (Fyn): 0.586
phosphorylation enrichment (AncSZ): 0.886
phosphorylation enrichment (Fer (mouse)): 0.64
phosphorylation enrichment (c-Src): 0.601
phosphorylation enrichment (Jak2): 0.989
phosphorylation enrichment (Fes): 1.2
phosphorylation enrichment (FGFR3): 0.669
phosphorylation enrichment (FGFR1): 0.545
phosphorylation enrichment (EPHB1): 0.702

SH2 binding enrichment (c-Src SH2): 0.366
SH2 binding enrichment (SHP2-C SH2): 0.592
SH2 binding enrichment (Grb2 SH2): 0.728
Sequence: PGVDIYISPNM [PADI3_Y51]
phosphorylation enrichment (c-Abl (mouse)): 1.68
phosphorylation enrichment (EPHB2): 0.973
phosphorylation enrichment (Hck): 1.38
phosphorylation enrichment (MERTK): 0.534
phosphorylation enrichment (Fyn): 1.02
phosphorylation enrichment (AncSZ): 1.64
phosphorylation enrichment (Fer (mouse)): 0.814
phosphorylation enrichment (c-Src): 0.894
phosphorylation enrichment (Jak2): 1.75
phosphorylation enrichment (Fes): 1.8
phosphorylation enrichment (FGFR3): 1.11
phosphorylation enrichment (FGFR1): 1.67
phosphorylation enrichment (EPHB1): 1.17

SH2 binding enrichment (c-Src SH2): 1.04
SH2 binding enrichment (SHP2-C SH2): 1.5
SH2 binding enrichment (Grb2 SH2): 0.865
Sequence: FTAVGYHKHFT [NOMO1_Y1137_I1141F]
phosphorylation enrichment (c-Abl (mouse)): 0.491
phosphorylation enrichment (EPHB2): 0.366
phosphorylation enrichment (Hck): 0.426
phosphorylation enrichment (MERTK): 0.424
phosphorylation enrichment (Fyn): 0.431
phosphorylation enrichment (AncSZ): 0.614
phosphorylation enrichment (Fer (mouse)): 0.449
phosphorylation enrichment (c-Src): 0.552
phosphorylation enrichment (Jak2): 0.782
phosphorylation enrichment (Fes): 0.935
phosphorylation enrichment (FGFR3): 0.589
phosphorylation enrichment (FGFR1): 0.449
phosphorylation enrichment (EPHB1): 0.252

SH2 binding enrichment (c-Src SH2): 0.851
SH2 binding enrichment (SHP2-C SH2): 0.538
SH2 binding enrichment (Grb2 SH2): 0.681
Sequence: ESMQSYDLDYP [UNC13B_Y243_D238E]
phosphorylation enrichment (c-Abl (mouse)): 0.933
phosphorylation enrichment (EPHB2): 0.534
phosphorylation enrichment (Hck): 0.615
phosphorylation enrichment (MERTK): 0.466
phosphorylation enrichment (Fyn): 0.536
phosphorylation enrichment (AncSZ): 1.16
phosphorylation enrichment (Fer (mouse)): 0.495
phosphorylation enrichment (c-Src): 0.544
phosphorylation enrichment (Jak2): 0.991
phosphorylation enrichment (Fes): 1.26
phosphorylation enrichment (FGFR3): 0.686
phosphorylation enrichment (FGFR1): 0.698
phosphorylation enrichment (EPHB1): 0.651
